{"source": "patent US20240165140A1", "about": "“MEDICATION FOR INHIBITING DNA-PKCS” (TSINGHUA UNIVERSITY, priority 2017, published 2024)", "molecules": {"B1": {"name": "Endostatin: recombinant natural human endostatin expressed by E. coli, from Protgen, SEQ ID NO: 2 (protein)", "chain": "MHSHRDFQPVLHLVALNSPLSGGMRGIRGADFQCFQQARAVGLAGTFRAFLSSRLQDLYSIVRRADRAAVPIVNLKDELLFPSWEALFSGSEGPLKPGARIFSFDGKDVLRHPTWPQKSVWHGSDPNGRRLTESYCETWRTEAPSATGQASSLLGGRLLGQSAASCHHAYIVLCIENSFMTASK", "modifications": "The amino acid sequence of natural human endostatin"}}, "key": {"[1]": {"system": "mRNA levels of BAX, NOXA, PUMA, and P21", "assay": "Real-time PCR of pro-apoptotic molecules, P53-deficient tumor cells", "format": "cell-based", "details": "H1299-NC, A549-shP53; Endostatin 10 μg/ml added 1 h before Etoposide 1 μM, 16 h", "protocol": "(§1) After the cells were treated as described above, the total RNA of the cells was extracted, and the relative changes in mRNA levels of BAX, NOXA, PUMA, and P21 in the cells were detected by real-time PCR."}, "A549-shP53 tumor": {"system": "A549-shP53 tumor", "assay": "Subcutaneous tumor growth in nude mice, A549-shP53", "format": "in vivo", "details": "A549-shP53, Day 27; compared with control group; Endostatin 20 mg/kg i.p. once a day, Etoposide 2 mg/kg i.p. once every two days", "protocol": "(§2) Tumor-bearing nude mice were randomly divided into four groups with 6 to 8 animals for each group, and different drug treatments were performed. […] Tumor volume was measured every other day. 2 to 4 weeks after administration, the mice were sacrificed and the tumor tissue was removed for further use."}, "H1299 mouse tumor model": {"system": "H1299 mouse tumor model", "assay": "Survival of H1299 tumor-bearing mice", "format": "in vivo", "details": "administration as in Example 12, stopped after 25 days", "protocol": "as §2\n(§3) H1299 and A549 cells were cultured in a vigorous and proliferative state, and tumor collection, grouping, and administration methods were the same as in Example 12. The administration was stopped after 25 days, and the survival of the mice was recorded daily, and the survival curve of the mice was plotted."}, "[2]": {"system": "P53-deficient tumor cells (H1299-NC and A549-shP53)", "assay": "CCK8 cell activity, P53-deficient tumor cells", "format": "cell-based", "protocol": "(§4) First, a lentivirus kit (purchased from Shanghai Genepharma) was used to construct a P53 stably overexpressing H1299 cell line (H1299-P53) and a P53 stably knockdown A549 cell line […]. The P53 sequence targeted by the shRNA used to knock down P53 in A549 cells was 5′-[…]-3′ (SEQ ID NO: 4). Virus transfection and the construction of stable cell lines were performed according to the kit instructions. […] After treatment for 12 hours, the drug-containing medium was replaced with a normal medium and the cells were further cultured for 72 hours. Cell activity was measured according to the instructions of the CCK8 kit (Dojindo, Tokyo, Japan).\n(§5) In this example, another chemical drug, Doxorubicin, was used to verify that Endostatin can enhance the sensitivity of P53-deficient tumor cells to chemotherapy. Operation process was the same as in Example 5."}, "[3]": {"system": "A549 tumor-bearing mice (normal P53 function)", "assay": "Survival of A549 tumor-bearing mice", "format": "in vivo", "details": "A549, normal P53 function (FIG. 13B); compared with control group; administration as in Example 12, stopped after 25 days", "protocol": "as §2, §3"}, "[4]": {"system": "tumor cells with normal P53 function (H1299-P53, A549-NC)", "assay": "PI staining apoptosis by flow cytometry, tumor cells with normal P53 function", "format": "cell-based", "details": "Endostatin 10 μg/ml added 1 h before Etoposide 1 μM, 16 h", "protocol": "The apoptotic cells and adherent cells floating in the culture medium were collected, and the cells were suspended in 500 μl PBS containing 0.05 mg/ml propidium iodide (PI), stained for 15 min at room temperature in dark, and detected by flow cytometry (BD FACS Calibur). PI-positive cells represent apoptotic cells."}, "[5]": {"system": "tumor cells with normal P53 function (H1299-P53, A549-NC)", "assay": "Cell colony formation, tumor cells with normal P53 function", "format": "cell-based", "details": "Endostatin 10 μg/ml added 1 h before Etoposide 1 μM, 16 h", "protocol": "After the treatment, the cells were digested with trypsin, counted, and re-plated in a six-well plate with 1000 cells per well. The cells were cultured in a normal medium for 14 days to form cell colonies."}, "MDA-MB-435S cells": {"system": "MDA-MB-435S cells", "assay": "CCK8 cell activity, melanoma MDA-MB-435S", "format": "cell-based", "details": "MDA-MB-435S (P53 mutant); operation process as in Example 5", "protocol": "as §4\nThis example used two cell lines of another tumor type (melanoma), the MDA-MB-435S (P53 mutant) and A375 (P53 wild type) cell lines, to verify the regulatory function of Endostatin on the chemotherapeutic sensitivity of other types of tumor cells with different P53 status. Operation process was the same as in Example 5."}, "[6]": {"system": "DNA-PKcs, PARP, γH2AX and Caspase-3 signaling pathways", "assay": "Immunoblotting of DNA damage and apoptotic pathway, tumor cells with normal P53 function", "details": "H1299-P53, A549-NC; Endostatin 10 μg/ml, Etoposide 10 μM 16 h, z-DEVD-fmk 10 μM; Endostatin and z-DEVD-fmk added 1 h before Etoposide", "excerpt": "(§6) In this example, tumor cells (H1299-NC, H1299-P53, A549-NC, A549-shP53) were divided into six treatment groups."}, "[7]": {"system": "mRNA levels of BAX, NOXA, PUMA, and P21", "assay": "Real-time PCR of pro-apoptotic molecules, tumor cells with normal P53 function", "format": "cell-based", "details": "H1299-P53, A549-NC; Endostatin 10 μg/ml added 1 h before Etoposide 1 μM, 16 h", "protocol": "as §1"}, "H1299-P53 tumor": {"system": "H1299-P53 tumor", "assay": "Subcutaneous tumor growth in nude mice, H1299-P53", "format": "in vivo", "protocol": "as §2"}, "[8]": {"system": "DNA-PKcs, PARP, γH2AX and Caspase-3 signaling pathways", "assay": "Immunoblotting of DNA damage and apoptotic pathway, P53-deficient tumor cells", "format": "cell-based", "details": "H1299-NC, A549-shP53; Endostatin 10 μg/ml, Etoposide 10 μM 16 h, z-DEVD-fmk 10 μM; Endostatin and z-DEVD-fmk added 1 h before Etoposide", "excerpt": "as §6"}, "H1299-NC tumor": {"system": "H1299-NC tumor", "assay": "Subcutaneous tumor growth in nude mice, H1299-NC", "format": "in vivo", "details": "Day 19, compared with control group, Endostatin 20 mg/kg i.p. once a day, Etoposide 2 mg/kg i.p. once every two days", "protocol": "as §2"}, "[9]": {"system": "tumor cells with normal P53 function (H1299-P53 and A549-NC)", "assay": "CCK8 cell activity, tumor cells with normal P53 function", "format": "cell-based", "protocol": "as §4, §5"}, "γH2AX": {"system": "γH2AX", "assay": "Immunoblotting of γH2AX level (DSBs damage repair)", "format": "cell-based", "details": "H1299 and A549 cells; Endostatin 10 μg/ml pretreatment 1 h, Etoposide 10 μM 1 hour, then fresh medium", "text": "In this example, the level of γH2AX was used to reflect the degree of DSBs damage. Tumor cells (including H1299 and A549 cells) were divided into eight treatment groups."}, "[10]": {"details": "Operation process as in Example 5, Doxorubicin instead of Etoposide"}}, "data": [{"molecule": "B1", "values": [{"measurement": "Effect on up-regulation of pro-apoptotic molecules by Etoposide (mRNA)", "setting": "[1]", "result": "could enhance Etoposide to up-regulate pro-apoptotic molecules"}, {"measurement": "tumor suppression rate", "setting": "A549-shP53 tumor", "result": 37.1, "unit": "%"}, {"measurement": "median survival time longer than that of the control group", "setting": "H1299 mouse tumor model", "result": 24.2, "unit": "%"}, {"measurement": "Effect on toxicity of Etoposide to tumor cells (cell activity)", "setting": "[2]; Endostatin 10 μg/ml pretreatment 1 h, Etoposide 0, 0.1, 1, 10 μM, 12 hours treatment, 72 hours further culture", "result": "could enhance the toxicity of Etoposide to tumor cells"}, {"measurement": "Effect on toxicity of Doxorubicin to tumor cells (cell activity)", "setting": "[2]; [10]", "result": "could enhance the toxicity of Doxorubicin to tumor cells"}, {"measurement": "Survival time of mice", "setting": "[3]", "result": "could prolong the survival time of the mice to some extent"}, {"measurement": "Effect on the pro-apoptotic effect of Etoposide (PI-positive cells)", "setting": "[4]", "result": "did not significantly enhance the pro-apoptotic effect of Etoposide"}, {"measurement": "Effect on inhibition of colony-forming ability by Etoposide", "setting": "[5]", "result": "did not significantly enhance theinhibitory effect of Etoposide"}, {"measurement": "Effect on toxicity of Etoposide to tumor cells (cell activity)", "setting": "MDA-MB-435S cells", "result": "could enhance the toxicity of Etoposide to tumor cells"}, {"measurement": "DNA-PKcs, PARP, γH2AX and Caspase-3 signaling pathway levels", "setting": "[6]", "result": "did not affect the above-mentioned signaling pathway levels"}, {"measurement": "Effect on the pro-apoptotic effect of Etoposide (mRNA of pro-apoptotic molecules)", "setting": "[7]", "result": "did not significantly enhance the pro-apoptotic effect of Etoposide"}, {"measurement": "tumor suppression rate", "setting": "H1299-P53 tumor; H1299-P53, Day 19, compared with control group, Endostatin 20 mg/kg i.p. once a day, Etoposide 2 mg/kg i.p. once every two days", "result": 33.8, "unit": "%"}, {"measurement": "Effect on the inhibitory effect of Etoposide on tumor growth", "setting": "H1299-P53 tumor; H1299-P53, Endostatin 20 mg/kg i.p. once a day and Etoposide 2 mg/kg i.p. once every two days", "result": "could not enhance the inhibitory effect of Etoposide on tumor growth"}, {"measurement": "DNA-PKcs, PARP, γH2AX and Caspase-3 signaling pathway levels", "setting": "[8]", "result": "did not affect the above-mentioned signaling pathway levels"}, {"measurement": "tumor suppression rate", "setting": "H1299-NC tumor", "result": 19.6, "unit": "%"}, {"measurement": "Effect on the inhibitory effect of Etoposide on cell activity", "setting": "[9]; Endostatin 10 μg/ml pretreatment 1 h, Etoposide 0, 0.1, 1, 10 μM", "result": "did not significantly enhance the inhibitory effect of Etoposide"}, {"measurement": "Effect on the inhibitory effect of Doxorubicin on cell activity", "setting": "[9]; [10]", "result": "did not significantly enhance the inhibitory effect of Doxorubicin"}, {"measurement": "Reduction of γH2AX level (repair of DSBs damage) after Etoposide", "setting": "γH2AX", "result": "delayed the reduction of γH2AX level"}]}]}
